Results published in the supplement of paper PMC10567573.

B1: TOR1AIP2 (parent)
chain: YTSSQKVSPIQIDGAGRTWQDSDT

Variants of: B1
Assay: protein stability index of a GFP-peptide fusion (GPS, HEK-293T) (PSI 1-6); higher = more stable
Conditions: c terminus: a fixed tail appended
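Further: lentivirally expressed fusions sorted by FACS into six bins by GFP to DsRed ratio, PSI derived from sequencing read proportions per bin multiplied by bin number.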

Protein stability index, by site and new letter:
S3: Y 2.81
S4: R 3.23; A 3.06; T 3.34; H 3.37; F 2.58; Q 3.25; Y 2.67; G 3.59; V 3.27; N 3.65; M 2.65; L 2.84; C 2.78; D 4.57; I 2.92; K 2.36; E 3.35; P 3.18
I12: W 2.55; E 5; R 3.63; F 3.24; Q 4.03; M 3.5; C 2.7; H 4.21; Y 3.19; A 3.68; V 2.97; K 3.76; S 3.08; P 3.99; L 3.29; G 4.59; N 3.65; D 4.12; T 3.65
R17: G 3.63; K 3.54; I 3.59; M 2.18; N 3.02; S 3.96; W 2.32; E 4.4; Y 3.02; C 3.66; A 3.66; V 3.64; T 3.6; H 2.24; F 2.33; Q 3.79; P 4.25; D 4.16; L 3.21
G14: W 3.16; H 3; S 3.51; L 2.99; N 3.5; D 3.46; P 3.28; T 3.38; Y 2.78; M 2.77; I 2.5; F 2.83; C 4.45; A 3.37; E 3.94; V 2.78; Q 3.57; R 1.95
S8: H 2.57; E 4.47; Y 2.16; A 3.52; M 3.06; W 3.33; D 2.9; G 3.25; L 2.82; R 2.67; C 3.12; V 2.67; I 2.35; N 4; T 3.36; F 2.75; K 3.46; P 3.1; Q 3.17
V7: I 2.9; K 4.03; A 3.41; Y 1.54; C 2.67; G 3.96; F 3.64; H 3.58; E 3.46; D 3.67; T 3.78; N 3.97; L 3.12; Q 4.19; M 2.51; R 3.43; S 3.52; P 3.6
K6: L 2.9; A 3.58; D 4.86; T 4.03; Q 3.76; N 3.97; H 3.51; Y 1.31; C 3.04; I 3.67; W 3.33; G 3.42; V 3.52; P 4.01; F 3.73; M 3.6; E 4.82; S 3.51; R 3.41
Q5: N 3.04; S 3.87; L 3.58; Y 2.34; D 4.04; A 3.08; M 3.86; C 2.13; P 2.96; I 3.12; E 4.2; G 3.38; K 3.45; R 3.35; H 2.87; V 3.31; T 3.6
Q20: L 2.58; G 3.08; I 2.42; D 3.79; A 3.43; S 3.69; V 3.54; C 3.34; W 2.01; T 3.03; R 2.62; F 2.62; K 3.16; P 2.69; H 2.71; E 4.31; N 4.09; M 2.75; Y 2.84
T18: D 4.01; L 3; F 1.33; V 3.29; K 3.33; A 3.01; C 2.9; P 3.38; S 2.87; Y 2.74; M 2.42; G 3.47; Q 3.8; N 3.41; R 3.43; I 2.63; E 3.83; W 2.3
A15: D 3.85; N 3.71; W 1.67; L 2.93; G 3.04; H 2.6; Y 2.91; F 2.45; S 2.95; C 3.03; P 2.99; R 2.56; E 3.52; V 2.82; I 3.25; K 2.73; T 3.36; Q 3.35
W19: T 4.35; E 4.86; F 3.92; K 4.56; Q 4.57; H 4.09; G 3.74; L 4.11; A 3.93; D 4.39; N 4.04; M 4.34; R 4.13; P 4.67; Y 4.08; S 4.76; I 3.96; V 4.56; C 3.88
P9: A 3.34; N 3.49; I 2.69; D 3.94; E 4.28; Q 3.44; H 3.22; S 4.38; R 3.37; M 3.12; F 2.05; V 2.66; K 3.71; Y 2.22; G 3.45; T 3.98; L 3.74; C 3.02
G16: V 3; W 1.61; H 3.41; R 3.19; I 2.54; T 2.7; C 2.99; M 3.65; N 1.93; P 3.24; D 4.01; L 3.07; E 3.32; S 2.9; Y 2.89; F 2.3; A 3.07; K 3.33; Q 2.97
D21: C 2.85; T 2.62; Y 2.43; V 2.39; K 3.46; N 3.29; P 2.81; L 2.46; A 2.73; S 2.95; I 2.71; E 3.27; M 2.36; F 2.33; R 2.6; Q 2.45; G 2.62; H 2.34
Q11: M 3.16; V 2.84; D 3.96; Y 2.2; S 3.73; G 2.06; T 3.56; L 2.8; A 2.96; N 3.4; K 3.95; I 2.72; H 3.67; W 5.21; C 2.47; F 2.06; E 3.81; R 3.11; P 3.93
D13: P 2.87; L 2.29; W 1.54; A 3.2; R 2.36; K 2.77; V 2.39; G 3.07; Q 3.27; Y 1.96; I 2.35; T 2.87; M 2.21; N 3.15; H 2.64; S 2.86; F 1.67; C 2.79; E 3.33
I10: F 1.85; R 3.76; V 4.1; G 3.85; Y 1.57; H 3.5; T 3.96; E 4.58; S 3.93; D 4.32; P 4.18; K 3.33; C 3.25; Q 4; N 4.2; M 3.44; L 3.52; A 3.77; W 2.4
